Data as given in article PMC11995678.
Like-named read-outs stand apart in the source and are kept apart here.

What was measured:
His662 [1] = target: T1, His662 (UniProt position 662, MKQVKHIPESK); conditions: cited from earlier work
His662 [2] = target: T1, His662; assay: NMR; conditions: 35 °C (default for NMR experiments; not restated for the titration), 50 mM NaCl, 20 mM Tris, 10 mM CHAPS, no CaCl2, formate and imidazole included as internal pH indicators, pH adjusted with 1 M HCl, Ca2+-free (apo), Ca2+-binding-deficient mutant, folded

| Substance | pKa (His662 [1]; Ca2+-bound (holo) WT) | pKa (His662 [1]; Ca2+-free (apo) WT) | pKa (His662 [2]) |
| --- | --- | --- | --- |
| LETM1 F-EF-hand domain, wild type (Homo sapiens) | ~6.28 | ~6.39 |  |
| LETM1 F-EF-hand domain D676A/N678A (AEA) mutant (Homo sapiens; D676A;N678A) |  |  | 6.58 ± 0.06 |
